Source: publication PMC3268394 (The Journal of Biological Chemistry, 2011)

B1: His-tagged UBP domain of USP5 (171–290) (domain or fragment)
chain: GEVRQVSKHAFSLKQLDNPARIPPCGWKCSKCDMRENLWLNLTDGSILCGRRYFDGSGGNNHAVEHYRETGYPLAVKLGTITPDGADVYSYDEDDMVLDPSLAEHLSHFGIDMLKMQKTD
B2: ubiquitin C-terminal pentapeptide RLRGG (peptide)
peptide: RLRGG

How the values were obtained:
[1] = target: ubiquitin (UniProt P0CG48 1-76); assay: pull-down
[2] = target: T1, HDAC6 ZnF-UBP domain (1109–1215), His tag cleaved (UniProt Q9UBN7 1109-1215); assay: crystal structure
T1 sequence: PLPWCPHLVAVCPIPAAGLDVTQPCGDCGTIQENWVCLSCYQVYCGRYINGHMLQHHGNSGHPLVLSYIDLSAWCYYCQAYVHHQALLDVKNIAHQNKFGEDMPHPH

| Binder | binding result [1] | binding result [2] |
| --- | --- | --- |
| B1 | binds | – |
| B2 | – | binds |
